According to article PMC5688128, “Structural basis for tRNA-dependent cysteine biosynthesis” (Nature Communications, 2017):

B3: O-phosphoseryl-tRNA synthetase (SepRS), Methanocaldococcus jannaschii (enzyme)
chain: MRFDIKKVLELAEKDFETAWRETRALIKDKHIDNKYPRLKPVYGKPHPVMETIERLRQAYLRMGFEEMINPVIVDEMEIYKQFGPEAMAVLDRCFYLAGLPRPDVGLGNEKVEIIKNLGIDIDEEKKERLREVLHLYKKGAIDGDDLVFEIAKALNVSNEMGLKVLETAFPEFKDLKPESTTLTLRSHMTSGWFITLSSLIKKRKLPLKLFSIDRCFRREQREDRSHLMSYHSASCVVVGEDVSVDDGKVVAEGLLAQFGFTKFKFKPDEKKSKYYTPETQTEVYAYHPKLGEWIEVATFGVYSPIALAKYNIDVPVMNLGLGVERLAMIIYGYEDVRAMVYPQFYEYRLSDRDIAGMIRVDKVPILDEFYNFANELIDICIANKDKESPCSVEVKREFNFNGERRVIKVEIFENEPNKKLLGPSVLNEVYVYDGNIYGIPPTFEGVKEQYIPILKKAKEEGVSTNIRYIDGIIYKLVAKIEEALVSNVDEFKFRVPIVRSLSDINLKIDELALKQIMGENKVIDVRGPVFLNAKVEIK
notes: O-phosphoseryl-tRNA synthetase (SepRS) of Methanocaldococcus jannaschii; wild type; source: E. coli B834(DE3) plus pRARE2, purified (heat treatment 75 °C, HisTrap, Heparin, Superdex 200)

Key:
[1] = molecular target: T1, SepRS (SepRS-SepCysE-SepCysS ternary complex, transsulfursome) (Methanocaldococcus jannaschii, UniProt Q59054); test: X-ray crystal structure, […] Å; type: binding; conditions: 10 mM ATP in crystallisation, pH 7.0; active site, Arg228, Glu230, His237, Tyr240; bent ATP
T1 construct: gene sepS; recombinant from E. coli B834(DE3), pET-15b; SepRS tetramer; only SepRS and SepCysE N-helix (Met1-Lys24) visible; with SepRS/SepCysS pathway enhancer SepCysE; O-phospho-L-seryl-tRNA:Cys-tRNA synthase

[2] = molecular target: T2, SepCysS (SepCysE-SepCysS-tRNA^Cys complex) (Methanocaldococcus jannaschii, UniProt Q59072); test: X-ray crystal structure, […] Å; type: binding; conditions: covalent; Lys234; crystallised at pH 5.0 with tRNA^Cys
T2 construct: gene pscS; recombinant, coexpressed with SepCysE in E. coli B834(DE3); SepCysS homodimer; co-crystal with tRNA^Cys; with SepRS/SepCysS pathway enhancer SepCysE
T2 sequence (Q59072 whole entry, one chain of several): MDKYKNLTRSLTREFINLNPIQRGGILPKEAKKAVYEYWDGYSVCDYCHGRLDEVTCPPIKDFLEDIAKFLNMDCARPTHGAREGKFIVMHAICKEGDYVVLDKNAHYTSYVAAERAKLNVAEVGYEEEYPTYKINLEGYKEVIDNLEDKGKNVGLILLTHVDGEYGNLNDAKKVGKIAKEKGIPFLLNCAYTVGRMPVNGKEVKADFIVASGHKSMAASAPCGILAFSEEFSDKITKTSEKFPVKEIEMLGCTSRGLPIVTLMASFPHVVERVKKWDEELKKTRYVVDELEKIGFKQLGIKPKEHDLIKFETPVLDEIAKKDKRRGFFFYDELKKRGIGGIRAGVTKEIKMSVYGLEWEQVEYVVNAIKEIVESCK

[3] = molecular target: B3; test: negative stain electron microscopy; purified wild type and del_linker1 transsulfursome adsorbed on carbon-coated grids; 20 mM HEPES-KOH pH 8.0, 200 mM KCl, 5 mM MgCl2; uranyl formate; class averaging; conditions: both partners purified
[4] = molecular target: the molecule itself; test: crystal structure; SepCysE-SepCysS mixed with tRNA^Cys at a molar ratio of 1:1.2, protein 16 mg/ml; 0.1 M MES pH 5.0, 2.4 M ammonium sulfate; 2.6 Å; PDB 5X6B
[5] = molecular target: the molecule itself; test: crystal structure; 50 μM SepRS-SepCysE-SepCysS(del_RRF), 30 μM tRNA^Cys, 10 mM ATP; 0.1 M Tris-HCl pH 7.0, 0.3 M ammonium sulfate, 36% MPD; 3.10 Å; only SepRS and the N-helix of SepCysE visible; PDB 5X6C
[6] = molecular target: B3; test: SEC-SAXS; SepCysE(CTD)-truncated transsulfursome in solution; Superdex 200 Increase 10/300 GL, room temperature; scattering compared with models from the crystal structures; conditions: both partners purified

Nc1ncnc2c1ncn2[C@@H]1O[C@H](COP(=O)(O)OP(=O)(O)OP(=O)(O)O)[C@@H](O)[C@H]1O [ATP]
X-ray crystal structure, 3.1 Å [1]: ATP was observed in the active sites of SepRS.

Cc1ncc(COP(=O)(O)O)c(C=O)c1O [pyridoxal-5′-phosphate]
X-ray crystal structure, 2.6 Å [2]: PLP was covalently bound to the side chain of the conserved Lys234

B1: SepCysE(del_linker1) of M. jannaschii, 10 residues of linker1 truncated (natural protein, Methanocaldococcus jannaschii)
chain: MRVEYSKDLIRKGISTISQLKKAKSYKDAKPGKIDVNEFKKAIYLLIEADDFLYKKAPKHELNEEEAKEFCKLIIKCQEHLNKILANFGFEFEEKEIDEGALYIVSNKKLFKKLKNKNPNLKVVCTEGMLDIEDMRAIGVPEKALEGLKKKVEIARKNVERFIEKYKPEKIFVVVEDDKDELLYLRAKNLYNAEKLDADEILD
notes: source: E. coli B834(DE3) plus pRARE2, purified within the transsulfursome (same procedure as the wild type)
binding result [3]: binds

B2: SepCysE (SepRS/SepCysS pathway enhancer), Methanocaldococcus jannaschii (natural protein)
chain: MRVEYSKDLIRKGISTISQLKKAKIRVEKDDKKISYKDAKPGKIDVNEFKKAIYLLIEADDFLYKKAPKHELNEEEAKEFCKLIIKCQEHLNKILANFGFEFEEKEIDEGALYIVSNKKLFKKLKNKNPNLKVVCTEGMLDIEDMRAIGVPEKALEGLKKKVEIARKNVERFIEKYKPEKIFVVVEDDKDELLYLRAKNLYNAEKLDADEILD
notes: SepCysE of Methanocaldococcus jannaschii; wild type
stoichiometry N [4]: 2 | binding result [3]: binds

B3
stoichiometry N [5]: 4

B4: Sep-tRNA:Cys-tRNA synthase (SepCysS), Methanocaldococcus jannaschii (enzyme)
chain: DKYKNLTRSLTREFINLNPIQRGGILPKEAKKAVYEYWDGYSVCDYCHGRLDEVTCPPIKDFLEDIAKFLNMDCARPTHGAREGKFIVMHAICKEGDYVVLDKNAHYTSYVAAERAKLNVAEVGYEEEYPTYKINLEGYKEVIDNLEDKGKNVGLILLTHVDGEYGNLNDAKKVGKIAKEKGIPFLLNCAYTVGRMPVNGKEVKADFIVASGHKSMAASAPCGILAFSEEFSDKITKTSEKFPVKEIEMLGCTSRGLPIVTLMASFPHVVERVKKWDEELKKTRYVVDELEKIGFKQLGIKPKEHDLIKFETPVLDEIAKKDKRRGFFFYDELKKRGIGGIRAGVTKEIKMSVYGLEWEQVEYVVNAIKEIVESCK
modifications: PLP covalently bound to the side chain of Lys234
notes: Sep-tRNA:Cys-tRNA synthase (SepCysS) of Methanocaldococcus jannaschii; wild type; large domain Gly43-Lys295, small domain Trp296-Lys396; Homodimer
stoichiometry N [4]: 2

B5: CTD-truncated SepCysE of M. jannaschii (domain or fragment, Methanocaldococcus jannaschii, UniProt Q58876 1-110, looked up)
chain: MRVEYSKDLIRKGISTISQLKKAKIRVEKDDKKISYKDAKPGKIDVNEFKKAIYLLIEADDFLYKKAPKHELNEEEAKEFCKLIIKCQEHLNKILANFGFEFEEKEIDEG
notes: also called SepCysE(CTD)-truncated; source: E. coli B834(DE3) plus pRARE2, purified within the transsulfursome (same procedure as the wild type)
binding result [6]: binds
